Reference: article PMC8753264

Tests used:
Test in all cases: In vitro phosphorylation kinetics with recombinant Akt
Assay type in all cases: biochemical
Settings in all cases: other: recombinant Akt; n = 3
[1] = tested on: CC(C)[C@H](NC(=O)[C@H](CCC(=O)O)NC(=O)[C@H](CCC(=O)O)NC(=O)[C@H](Cc1ccc(O)cc1)NC(=O)[C@H](CCC(=O)O)NC(=O)[C@H](CC(=O)O)NC(=O)[C@H](CC(=O)O)NC(=O)[C@H](CCC(=O)O)NC(=O)[C@@H](CCCNC(=N)N)NC(=O)[C@@H](CCCNC(=N)N)NC(=O)[C@@H](CCCNC(=N)N)NC(=O)[C@H](C)N(C)C(=O)[C@H](Cc1ccccc1)NC(=O)[C@@H](NC(=O)[C@H](Cc1ccccc1)NC(=O)[C@H](C)NC(=O)[C@H](CCCNC(=N)N)N(C)C(=O)[C@@H]1CCCN1C(=O)[C@H](CCCNC(=N)N)NC(=O)CNC(=O)c1ccc2c(c1)C1(OC2=O)c2ccc(O)cc2Oc2cc(O)ccc21)[C@@H](C)O)C(N)=O
[2] = tested on: CC(C)[C@H](NC(=O)[C@H](CCC(=O)O)NC(=O)[C@H](CCC(=O)O)NC(=O)[C@H](Cc1ccc(O)cc1)NC(=O)[C@H](CCC(=O)O)NC(=O)[C@H](CC(=O)O)NC(=O)[C@H](CC(=O)O)NC(=O)[C@H](CCC(=O)O)NC(=O)CCCCCNC(=O)[C@H](C)N(C)C(=O)[C@H](Cc1ccccc1)NC(=O)[C@@H](NC(=O)[C@H](Cc1ccccc1)NC(=O)[C@H](C)NC(=O)[C@H](CCCNC(=N)N)N(C)C(=O)[C@@H]1CCCN1C(=O)[C@H](CCCNC(=N)N)NC(=O)CNC(=O)c1ccc2c(c1)C1(OC2=O)c2ccc(O)cc2Oc2cc(O)ccc21)[C@@H](C)O)C(N)=O
[3] = tested on: CC(C)[C@H](NC(=O)[C@H](CCC(=O)O)NC(=O)[C@H](CCC(=O)O)NC(=O)[C@@H]1Cc2ccc(O)cc2CN1C(=O)[C@H](CCC(=O)O)NC(=O)[C@H](CC(=O)O)NC(=O)[C@H](CC(=O)O)NC(=O)[C@H](CCC(=O)O)NC(=O)[C@@H](CCCNC(=N)N)NC(=O)[C@@H](CCCNC(=N)N)NC(=O)[C@@H](CCCNC(=N)N)NC(=O)[C@H](C)N(C)C(=O)[C@H](Cc1ccccc1)NC(=O)[C@@H](NC(=O)[C@H](Cc1ccccc1)NC(=O)[C@H](C)NC(=O)[C@H](CCCNC(=N)N)N(C)C(=O)[C@@H]1CCCN1C(=O)[C@H](CCCNC(=N)N)NC(=O)CNC(=O)c1ccc2c(c1)C1(OC2=O)c2ccc(O)cc2Oc2cc(O)ccc21)[C@@H](C)O)C(N)=O

recombinant Akt (Homo sapiens)
Km [1]: 14 ± 3 µM
kcat [1]: 0.7 ± 0.1 s⁻¹
Km [2]: 28 ± 16 µM
kcat [2]: 1.0 ± 0.4 s⁻¹
Km [3]: 17 ± 5 µM
kcat [3]: 0.8 ± 0.1 s⁻¹
